Measurements: JP2008136455A (dated 2008)

Experiments:
[1] = target: T1, hnRNP-K (heterogeneous nuclear ribonucleoprotein K) (human (endogenous protein of the human …, UniProt P61978 1-463, limits assumed)); experiment: streptavidin affinity precipitation from HT1080 lysate, stringent wash, western blot with anti-hnRNP-K antibody
T1 construct: Endogenous intracellular protein

[2] = target: T2, ビメンチン(vimentin) (human (endogenous protein of the human …, UniProt P08670 2-466)); experiment: streptavidin affinity precipitation from HT1080 lysate, stringent wash, western blot with anti-vimentin antibody
T2 construct: Endogenous intracellular protein
T2 sequence (P08670 2-466 limits assumed): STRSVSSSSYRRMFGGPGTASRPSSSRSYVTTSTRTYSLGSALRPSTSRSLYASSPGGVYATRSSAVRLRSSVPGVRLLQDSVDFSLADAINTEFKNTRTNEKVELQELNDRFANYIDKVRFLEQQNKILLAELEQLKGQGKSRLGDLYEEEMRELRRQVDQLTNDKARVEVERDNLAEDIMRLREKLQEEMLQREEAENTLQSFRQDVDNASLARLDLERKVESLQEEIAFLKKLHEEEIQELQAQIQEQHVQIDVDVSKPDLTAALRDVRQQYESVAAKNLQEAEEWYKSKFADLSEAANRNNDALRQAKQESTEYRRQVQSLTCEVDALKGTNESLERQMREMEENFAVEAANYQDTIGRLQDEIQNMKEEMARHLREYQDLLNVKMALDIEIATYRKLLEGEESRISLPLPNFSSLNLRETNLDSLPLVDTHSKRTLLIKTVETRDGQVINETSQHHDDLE

B1: VHH-Sfi-SBT (VHH, not shown: large carriers)
VHH: DVQLQASGGGSVQAGGSLRLSCAASGYTIGPYCMGWFRQAPGKEREGVAAINMGGGITYYADSVKGRFTISQDNAKNTVYLLMNSLEPEDTAIYYCAADSAIYASYYECGHGLSTGGYGYGPWGQGTQVTVSS
- binding result [1]: no binding
- binding result [2]: no binding
